Data taken from publication PMC12137140, “The fast-evolving FIKK kinase family of Plasmodium falciparum can be inhibited by a single compound” (Nature Microbiology, 2025).
Where no end group is shown, it is not given here. [ ]: non-standard residue; d: D form.

Biological target: Bio-His-FIKK13 (Plasmodium falciparum 3D7)
Test: SPR; single-cycle kinetics, Biacore S200, Biotin CAPture kit; Bio-His-FIKK13 immobilised (about 1,400 RU), peptides as analytes; 50 mM Tris pH 7.5, 250 mM NaCl, 2 mM DTT, 10 mM MgCl2, 1.5 µM ADP, 0.02% Tween, 0.1% DMSO; 25 °C; 100 s contact time

B1: FIKK13_1 (peptide)
peptide: YRLVFGCG
modifications: D-tyrosine at position 1; cyclised via a thioether bond between the N-terminus and the cysteine side chain; C-terminal amide
**Q.** B1 was tested. Which Kd did it give?
**A.** Its Kd is over 10 µM.

B2: FIKK13_6 (peptide)
peptide: YIVSVVCWSD
modifications: D-tyrosine at position 1; cyclised via a thioether bond between the N-terminus and the cysteine side chain; C-terminal amide
**Q.** Which Kd does the source give for B2 here?
**A.** The Kd was over 10 µM.

B3: FIKK13_4_Y10A (peptide)
peptide: YPLRFLSVKAHCG
modifications: D-tyrosine at position 1; cyclised via a thioether bond between the N-terminus and the cysteine side chain; C-terminal amide
**Q.** With B3 as the binder, how does the Kd read?
**A.** The Kd was over 10 µM.

B4: FIKK13_2_linear (peptide)
peptide: [dY]SFPVYRIWYRDCG-NH2
modifications: N-terminus assumed
SMILES: CC[C@H](C)[C@H](NC(=O)[C@H](CCCNC(=N)N)NC(=O)[C@H](Cc1ccc(O)cc1)NC(=O)[C@@H](NC(=O)[C@@H]1CCCN1C(=O)[C@H](Cc1ccccc1)NC(=O)[C@H](CO)NC(=O)[C@H](N)Cc1ccc(O)cc1)C(C)C)C(=O)N[C@@H](Cc1c[nH]c2ccccc12)C(=O)N[C@@H](Cc1ccc(O)cc1)C(=O)N[C@@H](CCCNC(=N)N)C(=O)N[C@@H](CC(=O)O)C(=O)N[C@@H](CS)C(=O)NCC(N)=O
**Q.** B4 was tested. Which Kd did it give?
**A.** The Kd was over 10 µM.

B5: FIKK13_4_linear (peptide)
peptide: [dY]PLRFLSVKYHCG-NH2
modifications: N-terminus assumed
SMILES: CC(C)C[C@H](NC(=O)[C@H](Cc1ccccc1)NC(=O)[C@H](CCCNC(=N)N)NC(=O)[C@H](CC(C)C)NC(=O)[C@@H]1CCCN1C(=O)[C@H](N)Cc1ccc(O)cc1)C(=O)N[C@@H](CO)C(=O)N[C@H](C(=O)N[C@@H](CCCCN)C(=O)N[C@@H](Cc1ccc(O)cc1)C(=O)N[C@@H](Cc1c[nH]cn1)C(=O)N[C@@H](CS)C(=O)NCC(N)=O)C(C)C
**Q.** B5 was tested. Which Kd did it give?
**A.** Its Kd is over 10 µM.

B6: FIKK13_2 (peptide)
peptide: YSFPVYRIWYRDCG
modifications: D-tyrosine at position 1; cyclised via a thioether bond between the N-terminus and the cysteine side chain; C-terminal amide
**Q.** For B6, which koff is on record?
**A.** Its koff is 0.2 s⁻¹.

**Q.** What about the kon of the same binder?
**A.** The kon was 1.4e+06 M⁻¹ s⁻¹.

B7: FIKK13_3 (peptide)
peptide: YPFITSPRYCFML
modifications: D-tyrosine at position 1; cyclised via a thioether bond between the N-terminus and the cysteine side chain; C-terminal amide
**Q.** Which results are given for B7?
**A.** koff: 0.029 s⁻¹; kon: 3.5e+06 M⁻¹ s⁻¹

B8: FIKK13_5 (peptide)
peptide: YRIFRIWWERCG
modifications: D-tyrosine at position 1; cyclised via a thioether bond between the N-terminus and the cysteine side chain; C-terminal amide
**Q.** With B8 as the binder, how does the koff read?
**A.** The koff was 0.07 s⁻¹.

**Q.** And the kon?
**A.** Its kon is 1.9e+06 M⁻¹ s⁻¹.
